# Laboratory results as given in the supplement of paper PMC10567573.
# B1: PTPRD (parent)
# chain: ITWFKDFLPVDTSNNNGRIKQLRS
# Variants of: B1
# Assay: protein stability index of a GFP-peptide fusion (GPS, HEK-293T) (PSI 1-6); higher = more stable
# Details: c terminus: a fixed tail appended
# 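Further: lentivirally expressed fusions sorted by FACS into six bins by GFP to DsRed ratio, PSI derived from sequencing read proportions per bin multiplied by bin number.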
row,Variant,protein stability index
1,ITWFKDFLPVDTSNQNGRIKQLRS,1.76
2,ITWFKDFLPVDTSNRNGRIKQLRS,1.71
3,ITWFKDFLPVDTSNSNGRIKQLRS,1.67
4,ITWFKDFLPVDTSNTNGRIKQLRS,3.44
5,ITWFKDFLPVDTSNVNGRIKQLRS,1.74
6,ITWFKDFLPVDTSNWNGRIKQLRS,2.17
7,ITWFKDFLPVDTSNYNGRIKQLRS,1.87
8,ITWFKDFLPVDTSNNAGRIKQLRS,1.78
9,ITWFKDFLPVDTSNNCGRIKQLRS,2.09
10,ITWFKDFLPVDTSNNDGRIKQLRS,1.88
11,ITWFKDFLPVDTSNNEGRIKQLRS,2.02
12,ITWFKDFLPVDTSNNFGRIKQLRS,1.82
13,ITWFKDFLPVDTSNNGGRIKQLRS,1.7
14,ITWFKDFLPVDTSNNHGRIKQLRS,1.58
15,ITWFKDFLPVDTSNNIGRIKQLRS,2.32
16,ITWFKDFLPVDTSNNKGRIKQLRS,1.98
17,ITWFKDFLPVDTSNNLGRIKQLRS,1.73
18,ITWFKDFLPVDTSNNMGRIKQLRS,1.43
19,ITWFKDFLPVDTSNNPGRIKQLRS,2.32
20,ITWFKDFLPVDTSNNQGRIKQLRS,2.26
21,ITWFKDFLPVDTSNNRGRIKQLRS,1.65
22,ITWFKDFLPVDTSNNSGRIKQLRS,1.98
23,ITWFKDFLPVDTSNNTGRIKQLRS,2.38
24,ITWFKDFLPVDTSNNVGRIKQLRS,2.62

row,Variant,protein stability index
1,ITWFKDFLPVDTSNNWGRIKQLRS,2.17
2,ITWFKDFLPVDTSNNYGRIKQLRS,1.71
3,ITWFKDFLPVDTSNNNARIKQLRS,1.58
4,ITWFKDFLPVDTSNNNCRIKQLRS,1.88
5,ITWFKDFLPVDTSNNNDRIKQLRS,2.09
6,ITWFKDFLPVDTSNNNERIKQLRS,2.62
7,ITWFKDFLPVDTSNNNFRIKQLRS,2.33
8,ITWFKDFLPVDTSNNNHRIKQLRS,1.37
9,ITWFKDFLPVDTSNNNIRIKQLRS,1.53
10,ITWFKDFLPVDTSNNNKRIKQLRS,2.86
11,ITWFKDFLPVDTSNNNLRIKQLRS,1.73
12,ITWFKDFLPVDTSNNNMRIKQLRS,1.34
13,ITWFKDFLPVDTSNNNNRIKQLRS,1.86
14,ITWFKDFLPVDTSNNNPRIKQLRS,1.73
15,ITWFKDFLPVDTSNNNQRIKQLRS,2.15
16,ITWFKDFLPVDTSNNNRRIKQLRS,1.5
17,ITWFKDFLPVDTSNNNSRIKQLRS,2.33
18,ITWFKDFLPVDTSNNNTRIKQLRS,2.25
19,ITWFKDFLPVDTSNNNVRIKQLRS,1.31
20,ITWFKDFLPVDTSNNNWRIKQLRS,2.63
21,ITWFKDFLPVDTSNNNYRIKQLRS,1.78
22,ITWFKDFLPVDTSNNNGAIKQLRS,1.8
23,ITWFKDFLPVDTSNNNGCIKQLRS,2.83
24,ITWFKDFLPVDTSNNNGDIKQLRS,1.83

row,Variant,protein stability index
1,ITWFKDFLPVDTSNNNGEIKQLRS,1.87
2,ITWFKDFLPVDTSNNNGFIKQLRS,2.04
3,ITWFKDFLPVDTSNNNGGIKQLRS,2.73
4,ITWFKDFLPVDTSNNNGHIKQLRS,2.77
5,ITWFKDFLPVDTSNNNGIIKQLRS,1.74
6,ITWFKDFLPVDTSNNNGKIKQLRS,1.68
7,ITWFKDFLPVDTSNNNGLIKQLRS,1.45
8,ITWFKDFLPVDTSNNNGMIKQLRS,1.63
9,ITWFKDFLPVDTSNNNGNIKQLRS,1.97
10,ITWFKDFLPVDTSNNNGPIKQLRS,2.08
11,ITWFKDFLPVDTSNNNGQIKQLRS,2.24
12,ITWFKDFLPVDTSNNNGSIKQLRS,1.95
13,ITWFKDFLPVDTSNNNGTIKQLRS,1.93
14,ITWFKDFLPVDTSNNNGVIKQLRS,2.33
15,ITWFKDFLPVDTSNNNGWIKQLRS,1.62
16,ITWFKDFLPVDTSNNNGYIKQLRS,2.1
17,ITWFKDFLPVDTSNNNGRAKQLRS,1.72
18,ITWFKDFLPVDTSNNNGRCKQLRS,1.69
19,ITWFKDFLPVDTSNNNGRDKQLRS,2.08
20,ITWFKDFLPVDTSNNNGREKQLRS,1.95
21,ITWFKDFLPVDTSNNNGRFKQLRS,2.25
22,ITWFKDFLPVDTSNNNGRGKQLRS,2.24
23,ITWFKDFLPVDTSNNNGRHKQLRS,1.53
24,ITWFKDFLPVDTSNNNGRKKQLRS,2.33

row,Variant,protein stability index
1,ITWFKDFLPVDTSNNNGRLKQLRS,2.07
2,ITWFKDFLPVDTSNNNGRMKQLRS,2.04
3,ITWFKDFLPVDTSNNNGRNKQLRS,1.95
4,ITWFKDFLPVDTSNNNGRPKQLRS,1.69
5,ITWFKDFLPVDTSNNNGRQKQLRS,2.57
6,ITWFKDFLPVDTSNNNGRRKQLRS,1.84
7,ITWFKDFLPVDTSNNNGRSKQLRS,1.54
8,ITWFKDFLPVDTSNNNGRTKQLRS,2.23
9,ITWFKDFLPVDTSNNNGRVKQLRS,1.73
10,ITWFKDFLPVDTSNNNGRWKQLRS,1.46
11,ITWFKDFLPVDTSNNNGRYKQLRS,2.13
12,ITWFKDFLPVDTSNNNGRIAQLRS,1.66
13,ITWFKDFLPVDTSNNNGRICQLRS,1.43
14,ITWFKDFLPVDTSNNNGRIDQLRS,2.05
15,ITWFKDFLPVDTSNNNGRIEQLRS,1.74
16,ITWFKDFLPVDTSNNNGRIFQLRS,1.98
17,ITWFKDFLPVDTSNNNGRIGQLRS,1.58
18,ITWFKDFLPVDTSNNNGRIHQLRS,1.63
19,ITWFKDFLPVDTSNNNGRIIQLRS,1.31
20,ITWFKDFLPVDTSNNNGRILQLRS,2
21,ITWFKDFLPVDTSNNNGRIMQLRS,1.55
22,ITWFKDFLPVDTSNNNGRINQLRS,2.08
